Experimental findings from paper PMC4415690 are described below.

The target in the assay is TesS thioesterase (SP1408) of Streptococcus pneumoniae, C-terminal FLAG tag (Streptococcus pneumoniae). Description: SEC.

As for “TesS thioesterase (SP1408) of Streptococcus pneumoniae, C-terminal FLAG tag (enzyme)”, the stoichiometry N amounted to 2.

By stoichiometry N is commonly meant a count of units in the complex or per binding partner.
